According to the nanobody polyreactivity screen of Harvey et al. (2022):

Assay: yeast display, Sf9 membrane polyspecificity reagent, FACS + sequencing; frameworks hold sequencing errors
Summary of the method: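 Galactose-induced (36–48 hours) yeast carrying a synthetic nanobody display library were exposed to 10% biotinylated, detergent-solubilized Sf9 membrane reagent at 4 °C for 1 hour. FACS followed streptavidin microbead enrichment, using low and high (top ~1%) gates for expression (anti-HA) and reagent binding (streptavidin). Colony PCR, MiSeq 2 × 250 sequencing and CDR-length filtering followed. Labels for polyreactivity reflect the gate of origin.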

Sequence	polyreactivity (PSR sort gate)
QVQLVESGGGLVQAGGSLRLSCAASGSTFQFYALGWYRQAPGKERELVAAISVSGDRTYYADSVKGRFTISRDYAKNTVYLQMNSLKPEDTAVYYCAASIWHFEVVSWYLYDYWGQGTQVTVSS	high polyreactivity
QVQLVESWGGLVQAGGSLRLSCAASGNTFIEYAMGWYRQAPGKERELVAAINWNGGSTYYADSVKGRFTISRDNAKNTVYFQMNSLTPEDTAVYYCAADTFRLYGALAEYDYWGQGTQVTVSS	low polyreactivity
QVHLVESGGGLVQAGGSLRISCAASGSTFYYYTMGWYRQAPGKERELVAISWDGDSTYYADSVKGRFTISRDNAKNTVYLQMNSLKPEDTAVYYFNAEYTWSGTKIYTYKYDFWGPGTQVTVSS	low polyreactivity
QVQLVESGGGLVQAGGSLRLSCAASGLNFVQYVMGWYRQATGKERELVAAITDDGNTYYADSVKGRFTISRDNAKNTVYLQMNSLKPEDTEVYYCNAVLRSYDFWPGYGYWGQGTQVTVSS	low polyreactivity
QVQLVESGGGLVQAGGSLRLSCAASGFTFLHNAMGWYRQAPGKDRELVAAISYSGGSTYADSVKGRFTISRDNAKYTVYLQMNSLKPEDTADYYCNADYSSQDNFDYWGQGTQVTVSS	low polyreactivity
QVQLVESGGGLVQAGGSLRLSCAASGSISYYNAMGWYRQAPGKERELVATITDSGGSTYYADSVKGRFTISRDNAKNTVYLQMNSLKPEDTAVYYCAVDYSEWYSIYDYWGQGTQVTVSS	low polyreactivity
QVQLVESGGGLVQAGGSLRLSCAASGSIFFPYAMGWYRQAPGKERELVARISWGAGRTYYADSVKGRFTISRDNAKNTVYLQMNSLKPEDTAVYYCAARDRTRYAGYNYWGQGTQVTVSS	high polyreactivity
QVQLVESGGGLLQAGGSLRLSCAASGSTFDIYAMGWYRQAPGKERELVAVISGGDGSTYYADSVKGRFTISRENAKNTVYLQMNSLKPEDTAVYYCAADDISPGYWDGEYDCWGQGTQVTVSS	low polyreactivity
QVQLVESGGGLVQAGGSLRLSCAASGIIFKTYAMGWYRQAPGKERELVAGIDYSGGGTSYADSVKGRFTISRDNAKNTVYLQMNSLKPEDTAVYYCAADAYSGAYFTYLGEIYDYWGQGTQVTVSS	low polyreactivity
QVQLVETGRGLVQEGGSLRLICAASGRTFYIYAMGWYRQAPGKERDLVAAISWGSGSPYYADSVKGRFTISRDNAKNTVYLQINSLKPEDTAVYYFAAEYAFPSEWTYDYWGQVTQVTVSS	low polyreactivity
QVQLVESGGGLVQARGSLRLSCAASGSIFYPYAMGWYRQAPGKERELVAGISRSGASTYYADSVKGRFTISRDNAKNTVYLQMNSLKPEDTAVYYCAADDWTRNYWGQGTQVTVSS	low polyreactivity
QVQLVESGGGLVQAGGSLRLSCAASGFTFDFNAMGWSRQAPGKERELVAAISSGASTNYADSVKGRFTISRDNAKNTVYLQMNSLKPEDTAVYYCAARSRTPGWYSTISRKMYWGQGTQVTVSS	high polyreactivity
QVQLVESGGGLVQAGGSLRLSCAASGGIFDTYAMGWYRQAPGKERELVAAISRRGGNTYYADSVKGRFTIARDNAKNTVYLQMNSLKPEDTAVYYCAAYYHGRMDYWGQGTQVTVSS	high polyreactivity
QVQLVESGGGLVQAGGSLRLSGAASGRYLFTWTAMGWYRQAPGIERELVAGITSGGNTYYADSVKGRFTISRDNPKNTVYLQMNSLKPEDTAVYYCAKGDGRRGDPYSRYDYCGQGTQVTVSS	low polyreactivity
QVKLVESGGGLVQAGGSLRLTCAASGFTFTPNAMGWYRQAPGKEMELVAAITRSSGRTYYADSVKGRFTISRDNAKNTVYLQMNSLKPEDTAVYYCAARYASTPYARFGFWGQGTQVTVSS	high polyreactivity
QVQLVESGGGLVQAGGSLRLSCAASGSIFSYNAMGWYRQAPGKERELVAAINNGGSTYYADSVKGRFTISRDNAKNTVYLQMNSLKPEDTAVYYCNTARRHCQTQGGDYWGQGTQVTVSS	high polyreactivity

Sequence	polyreactivity (PSR sort gate)
QVLLVESGGGLVQAGGSLRLSCGASGITFAEYAMGWYRKAPGKEREFVAAISRRGGSTYYADSVKGRFTISRDNAKNTVYIQMNTLKPEDTAVYYCNRRYDTFRFEHDYDYWGQGTQVTVSS	low polyreactivity
QVQLVESGGGLVQAGGSLRLSCAASGRIFVQYAMGWYRQAPGKERELVAAISKSGVRTFYADSVKGRFTISRDNAKNTVYLQMNSLKPEDTAVYYCNKAYRVGRTEFNYWGQGTQVTVSS	high polyreactivity
QVQLVESGGGLVQAGGSLRLSCAASGSTFRWNAMGWYRQAPGKERELVAAISWSGGTTYYADSVKGRFTISRDNAKNTVYLQMNSLKPEDTAVYYCAARTLWQGYWGQGTQVTVSS	high polyreactivity
QVQLVESGGGLVQAGGSLRLSCAASGRIYCKYAMGRYRQAPGKERELVAGISRGAGRTYYADSVKGRFTISRDNAKNTVYLQMNSLKPADTAVSYCAAVPSYHSTSPFYYWGQGTQVTVSS	high polyreactivity
QVQLVESGGGLLQAGGSLRLSCAASGPTFAYYAMGWYRQATGKERELVAAIDSSGGSTYYADSVKGRFTISRDNSNNSVYLQMNSLKPEDTAVNYCAASYPYDRYDQGGFGYWGQGTQVTVSS	low polyreactivity
QVQLVESGGGLVQAGGSLRLSCAASGRTFYIYAMGWYRQAPGKERELVAAITSVGSTNYADSVKGRFTISRDNAKNTVYLQMNSLKQEVTAVYYCAAESTEGTSGDYDYWGQGTQVTVSS	low polyreactivity
QVQLVESGGGLVQAGGSLRLSCAASGITFPFYAMGWYRQAPGKERELVAAISRRGGRTYYADSVKGRFTISRDNAKNTVYLQMNSLKPEDTAVYYCAAANGSADGDYWGQGTQVTVSS	high polyreactivity
QVQLVESGGGLVQAGGSLRLSCAASGTLSRYAMGWYIQAPGKERELVAAISWTGGSTYYADSVKGRFTISRDNAKYTVYLQMNSLKPEDTAVYYCNGAWRLRGDATYGYWGQGTQVTVSS	high polyreactivity
QVQLVESGGGLVQAGGSLRISCAASGNIFSVNAMGWYRQAPGKEREFVAAISGSGGSTYYADSVKGRFTISRDNAKNTVYLQMNSLKPEDTAVYYCAKRWYHPSSLPRYVFRGVDYWGQGTQVTVSS	high polyreactivity
QVQLVESGGGLVQAGGSLRLSCAASGNIIDANAMGWYRQAPWKERELVAAITSSGGSTYYADSVKGRFTISRDNAKNTVYLQMNSLNPEDTAVYYCAKSHAIYYWWDESWGQGTQVTVSS	low polyreactivity
QVQLGDSGGGLVQAGGSLRLSCAASGSIFVGYAMGWYRQAPGKERELVAAISWSGDSTYYAVSVKGRFTMSRDNAKNTVYLQMNSLKPEDTAVYYCAVDYAENGPRREVEYDYWGQGTQVTVSS	low polyreactivity
QVQLVESGGGLVQAGGSLRLSCAASGFILPNYAMGWYRQAPGKERELVAASTYIGGSTYYADSVKGRFTISRDNAKHTVYLQMNSLKPEDTAVYYCAKYWLGYTKYDYWGQGTQVTVSS	low polyreactivity
QVQLGESGGGLVQAGGSLRLSCAASGFTFYRYTLGWYRQEPGKERELVAAITWSGGNTYYADSVKGRFTISRDNAKNTVYLQMNSLKPEDTAFYYCAAYKPYSKYNYWGQGTQVTVSS	high polyreactivity
QVQLVESGGGLVQAGGSLRLSCAASGGTFDWNPMGWYRQAPGKERELVASITSGGRTNYADSVKGRFTISRDNAKNTVYLQMNSLKPEDTAVSYCAKYRRSAYPWQTWVGQKFDYWGQGTHVTVSS	low polyreactivity
QVQLVESGGGLVQAGGSLRISCAASGRTFYINAMGWYRQAPGKVWELVASISRSGGGTYYADSVKGRFTISRDNAKNNVYLQMNCLKPEDTAVYYCAAYSWSYSGYNFWGQGTQVTVSS	high polyreactivity
